Test results as given in patent publication US20210380678A1 (SURROZEN OPERATING, published 2021).
Residue numbers refer to the chain shown, from its start.

B1: 020S-E06 (antibody, V domains shown)
VH: QVQLVQSGAEVKKPGASVKVSCKASGYTFTGYYMHWVRQAPGQGLEWMGIINPSGGSTSYAQKFQGRVTMTRDTSTSTVYMELSSLRSEDTAVYYCARGRQGVWDYWGRGTLVTVSS
VL: DIQMTQSPSSLSASVGDRVTITCRSSQSIRTYLNWYQQKPGKAPKLLIYAASTLQSGVPSRFSGSGSGTDFTLTISSLQPEDFATYYCQQANSFPITFGGGTKVEIK
B2: 020S-F06 (antibody, V domains shown)
VH: QVQLVQSGAEVKKPGASVKVSCKASGYTFTSYYLHWVRQAPGQGLEWMGWMNPNSGNTGYAQNFQGRVTMTRDTSTSTVYMELSSLRSEDTAVYYCARGDFWSGYYPYYYYYYGMDVWGQGTTVTVSS
VL: B1 VL with S25V, S28G, R30S, T31S, A91S, N92Y, S93G, F94A, I96L, G100Q
B3: 028S-G01 (antibody, V domains shown)
VH: QVQLVQSGAEVKKPGASVKVSCKASGYTFTNYYMHWVRQAPGQGLEWMGWINPHSGGTNYAQKFQGRVTMTRDTSTSTVYMELSSLRSEDTAVYYCAREDYNWNDGWFDPWGQGTLVTVSS
VL: DIQMTQSPSSLSASVGDRVTITCRASENIHKYLNWYQQKPGKAPKLLIYAASSLQSGVPSRFSGSGSGTDFTLTISSLQPEDFATYYCQQGYSTPYTFGQGTKLEIK
B4: 024S-A02 (antibody, V domains shown)
VH: EVQLVQSGAEVKKPGASVKVSCKASGYTFTSYAMHWVRQAPGQRLEWMGWINAGNGNTKYSQTFQGRVTITRDTSASTAYMELSSLRSEDTAVYYCARDLMVRGGPPFDYWGQGTLVTVSS
VL: not shown
B5: 028S-B01 (antibody, V domains shown)
VH: QVQLVQSGAEVKKPGASVKVSCKASGYTFTAYYMHWVRQAPGQGLEWMGIINPNGGRTTYAQKFQGRVTMTRDTSTSTVYMELSSLRSEDTAVYYCARSFGVAGTLDYWGQGTLVTVSS
VL: DIVMTQSPLSLPVTPGEPASISCRSSQSLLHSNGYNYLDWYLQKPGQSPQLLIYDASNLETGVPDRFSGSGSGTDFTLKISRVEAEDVGVYYCMQTLHTPYTFGQGTKLEIK
B6: LP1-1F8 (antibody, V domains shown)
VH: EVKLVESGGGLVKPGGSLKLSCAASGFTFSTYTMSWVRQTPAKRLEWVATISSIGVNTYYPDSVKGRFTISRDNARNTLYLQVSSLRSEDTAMYYCARHVDYYDGISFDYWGQGTTLTVSS
VL: DIVMSQSPSSLAVSAGEKVTMSCKSSQSLFNSRTRKNYLAWYQQKPGQSPKLLIYWASTRESGVPDRFTGSGSGTDFTLTISSVQAEDLAVYYCKQSYYLLTFGAGTKLELK
notes: Hybridoma antibody as screened
B7: 028S-E04 (antibody, V domains shown)
VH: EVQLLESGGGLVQPGGSLRLSCAASGFTFNNFGMSWVRQAPGKGLEWVSGISASGRNTYYADSVKGRFTISRDNSKNTLYLQMNSLRAEDRAVYYCARETRHGSDYWGQGTLVTVSS
VL: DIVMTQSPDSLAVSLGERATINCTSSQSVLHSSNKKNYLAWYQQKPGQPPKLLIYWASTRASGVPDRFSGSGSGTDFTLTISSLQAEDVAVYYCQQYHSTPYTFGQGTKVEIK
B8: 028S-A04 (antibody, V domains shown)
VH: QVQLVQSGAEVKKPGASVKVSCKASGYTFTNYKMHWVRQAPGQGLEWMGKINPSSGSTSYAQKFQGRVTMTRDTSTSTVYMELSSLRSEDTAVYYCARSGAGMWYFDLWGRGTLVTVSS
VL: B3 VL with E27Q, N28D, H30Y, K31R, Y49F, Q55H, G91S, S93T, Y96I, L104V
B9: 028S-C03 (antibody, V domains shown)
VH: QVQLVQSGAEVKKPGASVKVSCKASGYTFSRYFMHWVRQAPGQGLEWMGWINPNSGGTRYAQNLQGRVTMTRDTSTSTVYMELSSLRSEDTAVYYCARDQKGKSSSWFRFDPWGQGTLVTVSS
VL: not shown
B10: 028S-H04 (antibody, V domains shown)
VH: QVQLVQSGAEVKKPGASVKVSCKASGYTFIGYYMHWVRQAPGQGLEWLGWVNPKNGHTGYAQKFQGRVTMTRDTSTSTVYMELSSLRSEDTAVYYCAKDLEHTGYSSGWAGFDYWGQGTLVTVSS
VL: not shown
B11: 028S-B07 (antibody, V domains shown)
VH: QVQLVQSGAEVKKPGASVKVSCKASGYTFTEYYMHWVRQAPGQGLEWMGWMNPNSGHAGSAQKFQGRVTMTRDTSTSTVYMELSSLRSEDTAVYYCARGRRSGLSPPAYWGQGTLVTVSS
VL: EIVMTQSPATLSVSPGERATLSCRASQSVSASLAWYQQKPGQAPRLLIYGASTRATGIPARFSGSGSGTEFTLTISSLQSEDFAVYYCHQYFSPPMTFGQGTRLEIK
B12: 028S-A11 (antibody, V domains shown)
VH: QVQLVQSGAEVKKPGASVKVSCKASGGTFSGYYMHWVRQAPGQGLEWMGWINPNRGGTSYAQNFQGRVTMTRDTSTSTVYMELSSLRSEDTAVYYCARGMYSSSWLRYWGQGTLVTVSS
VL: B3 VL with E27Q, N28G, H30S, K31N, N34A, Y92S, T94F, Y96L, L104V, E105D
B13: 028S-G06 (antibody, V domains shown)
VH: EVQLLESGGGLVQPGGSLRLSCAASGFAFSNFAMIWVRQAPGKGLEWVSAISGSGGSTYYADSVKGRFTISRDNSKNTLYLQMNSLRAEDTAVYYCARLRANYGMDVWGQGTTVTVSS
VL: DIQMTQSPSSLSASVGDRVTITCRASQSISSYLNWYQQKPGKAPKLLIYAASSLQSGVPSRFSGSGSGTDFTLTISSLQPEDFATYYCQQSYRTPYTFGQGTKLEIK
B14: 028S-G10 (antibody, V domains shown)
VH: QVQLVQSGAEVKKPGASVKVSCKASGYTFTSYGVSWVRQAPGQGLEWMGIINPRGGSTSYAQNFQGRVTMTRDTSTSTVYMELSSLRSEDTAVYYCARYSSSWSWPFDYWGQGTLVTVSS
VL: DIQMTQSPSSLSASVGDRVTITCRASQGISNNLNWYQQKPGKAPKLLIYAASTLQSGVPSRFSGSGSGTDFTLTISSLQPEDFATYYCQQSYSTPTFGQGTKVEIK
B15: 028S-D04 (antibody, V domains shown)
VH: QVQLVQSGAEVKKPGASVKVSCKASGGTFSSYAISWVRQAPGQGLEWMGRISPNRGGTKYAQKFQGRVTMTRDTSTSTVYMELSSLRSEDTAVYYCARDSWLRGAWGYWGQGTLVTVSS
VL: B3 VL with E27Q, N28S, H30S, K31R, Y32W, N34A, S53T, G91S, Y92F, L104V
B16: 028S-B04 (antibody, V domains shown)
VH: B1 VH with T30R, G31R, Y33P, G99D, R100K, Q101V, V103A, W104I, R109Q
VL: B3 VL with E27Q, N28G, H30S, K31N, N34A, S56R, G91S, Y96L, Q100G, L104V
B17: 028S-C04 (antibody, V domains shown)
VH: B1 VH with G31R, R100G, Q101S, V103W, W104L, R109Q
VL: B1 VL with S25A, R30S, Y32W, N34A, A91S, N92Y, F94S, I96L
B18: 028S-D09 (antibody, V domains shown)
VH: B1 VH with G31R, Y32H, R100S, Q101L, V103Y, W104F, Y106L
VL: not shown
B19: 028S-B06 (antibody, V domains shown)
VH: QVQLVQSGAEVKKPGASVKVSCKASGYRFTNYYMHWVRQAPGQGLEWMGWISPNSGATNYAQNFQGRVTMTRDTSTSTVYMELSSLRSEDTAVYYCARGGRTTVTTMAYWGQGTLVTVSS
VL: B5 VL with D55G, N58S, E60Q, T61S, T96G, L97T, T99W, Y101R, L109V, E110D

Target: T1, human RNF43 extracellular domain (hRNF43 ECD) (human, UniProt Q68DV7 44-197, biotinylated (His-Avi tag))
T1 construct: Expressed with a His-Avi tag at the N-terminus and biotinylated; also called human RNF3 (Q44-D198)
T1 sequence: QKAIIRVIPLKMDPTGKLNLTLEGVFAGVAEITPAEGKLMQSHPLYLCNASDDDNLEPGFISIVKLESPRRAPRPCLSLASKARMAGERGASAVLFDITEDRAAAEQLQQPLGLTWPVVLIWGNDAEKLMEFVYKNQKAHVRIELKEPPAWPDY
Experiment: ELISA (binding specificity)

Binder	binding result
B1	binds
B2	binds
B3	binds
B4	binds
B5	binds

Target: T2, human ASGR1 extracellular domain (hASGR1 ECD) (human, UniProt P07306 62-291, biotinylated (His-Avi tag))
T2 construct: His-Avi tag at the N-terminus, biotinylated for BLI; also called human ASGR1 ECD
T2 sequence: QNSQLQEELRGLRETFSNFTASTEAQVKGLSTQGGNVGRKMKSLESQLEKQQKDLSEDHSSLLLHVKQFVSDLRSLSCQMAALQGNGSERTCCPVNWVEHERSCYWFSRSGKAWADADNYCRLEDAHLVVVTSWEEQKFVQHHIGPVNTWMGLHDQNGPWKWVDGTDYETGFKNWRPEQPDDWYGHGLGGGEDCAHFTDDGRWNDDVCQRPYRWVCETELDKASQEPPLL
Experiment: hybridoma screening on recombinant ECD

Binder	binding result
B6	binds

Target: T3, cynomolgus ASGR1 extracellular domain (cynoASGR1 ECD) (cynomolgus, UniProt P07306 62-291 (human entry))
T3 construct: Cloned with a His/Avi tag
T3 chain: T2 sequence with S3A, E7R, F16L, T91A
Experiment: hybridoma screening on recombinant ECD

Binder	binding result
B6	binds

Target: T4, human ZNRF3 extracellular domain (hZNRF3 ECD) (human, UniProt Q9ULT6 56-219, biotinylated (His-Avi tag))
T4 construct: Expressed with a His-Avi tag at the N-terminus and biotinylated; also called ZRNF3
T4 sequence: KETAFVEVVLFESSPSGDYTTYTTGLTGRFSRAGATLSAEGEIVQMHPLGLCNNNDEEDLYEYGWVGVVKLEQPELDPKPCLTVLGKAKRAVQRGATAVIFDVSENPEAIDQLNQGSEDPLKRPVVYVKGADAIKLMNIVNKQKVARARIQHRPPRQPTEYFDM
Experiment: BLI (Octet) KD grade: *** = 100 nM > KD
Procedure: (§1) Binding characterization of recombinant Fabs or IgG' s was carried out using Bio-Layer Interferometry (BLI) using the Octet Red 96 platform (PALL ForteBio, Fremont, Calif.) with streptavidin (SA) coated biosensors (PALL ForteBio,). […] Following immobilization, sensors were dipped into samples containing test molecules at seven concentrations. Values for KD were determined by fitting the resulting data with a 1:1 binding model.

Binder	KD
B7	< 100 nM
B8	< 100 nM
B9	< 100 nM
B10	< 100 nM
B11	< 100 nM

Target: T4, human ZNRF3 extracellular domain …
Experiment: BLI (Octet) KD grade: ** = 1 uM > KD >= 100 nM
Procedure: as §1

Binder	KD
B12	100 to 1000 nM
B13	100 to 1000 nM
B14	100 to 1000 nM
B15	100 to 1000 nM
B16	100 to 1000 nM
B17	100 to 1000 nM
B18	100 to 1000 nM
B19	100 to 1000 nM

Target: T4, human ZNRF3 extracellular domain …
Experiment: BLI (Octet), biotinylated antigen on SA sensor, 1:1 fit
Procedure: as §1

Binder	Kd
B12	203 nM
B13	109 nM
B14	684 nM
B7	95.3 nM
B15	874 nM
B16	256 nM
B17	164 nM
B18	354 nM
B8	36.2 nM
B9	25.1 nM
B10	48 nM
B19	764 nM
B11	65.4 nM
